Experiment: label from the status in PepcDB records

Which protein production does the source give for “MTLFAEYNSPYLFAIAFVFFIGVLEMISLIFGHFLSGALDAHLDHYDALSSGPAGQALHYLNIGRVPALVVLCLLAGYFGLFGILIQHGGIMLWQAPLSNLLLVPLSIVLSVFAVHYSGKILAPWLPRDESSALREEEFIGGMAIITGHAAVAGTPCEGKFTDKFGQIHYLLLEPEKGKEFKKGDKVLIICRLSATRYLAERTFYV” here?
Its protein production is “failed”.

Which protein production does the source give for “MTLGLTPKFVKIFLFVGLMLLSTSLAVIFPLNSVEGLGSGVTKTVLDNGLTVLIKEIPTAPVVSLQVWYRVGSRHEPKGENGIAHQLEHLMFKGTQSRPVQFGQLFYALGSSSNAFTSYDMTAYHHTVRADQLEPLLILEADRLRHTLITPDALESEKRVVISELQGYENSPEYRLSRAVMAALYPKHPYGLPVGGTASDVEQLTLAAVKSFYQQYYRPDNAVVVIAGNVRAARALELVKSTFGAIPQPPEPLISPPLPPPGAVSGQRIRLREPGSAPLLQILVPIPGITHPDQAALDVLDMLLSGGRSSYFYQELMETGQASSAYSYVAALQEGGWFEMGAIASPDQSLETIEQSIGKMLQQLAERPLSLAELQRAKQQLKANFILRNRDIDAQASQLANDETLTGDYRFSDRHLAAIEKVTAADVQRVVQTYFGRDRWIVGEFIPSEFADVELSGRPAVQTTAHNLIGEPVDPQTIAAYLPQGSAQAAPAVKNNGVETFTLENGLRVLLLVDRSTPTVTLAGRIDAGTAYDLLTQPGVANLTAANLLNGTRTKTALTLAQTLEDRGISLEFSAFRDGVDVEGYALASELPTLLATLGEVLQEATFPEAEFKLSQQRYLTALGLEADDPVRWGRRVLQETLYPAHHPLHPFATPESVQAIQRQDLLNFYRAAYRPDRTILTLVGDFDPLAVRSRLKDIFGPWQPPTAPLSLTFPAVSPPPQTLFRNAVIAGKSQAITYLGTPGIDRRHPRFYAAMLMNHILGGDTLASRLGTEIRDRQGLTYGIYSFFTASRQAGPFMIQLQTAPEDTAKAIQATLQLLREARRQGFTAAELEAAKRSLSNTYLVELANVDVVARTLLANASVDLPPQELQQFSDRLQQVSLAEVNQALRELIDPERLVIVTAGPAVSFSP” here?
Its protein production is “failed”.

With “MTLKAGIVGIGMIGSDHLRRLANTVSGVEVVAVCDIVAGRAQAALDKYAIEAKDYNDYHDLINDKDVEVVIITASNEAHADVAVAALNANKYVFCEKPLAVTAADCQRVIEAEQKNGKRMVQIGFMRRYDKGYVQLKNIIDSGEIGQPLMVHGRHYNASTVPEYKTPQAIYETLIHEIDVMHWLLNEDYKTVKVYFPRQSSLVTTLRDPQLVVMETTSGINIVVEVFVNCQYGYDIHCDVTGEKGMAELPTVASAAVRKAAKYSTDILVDWKQRFIDAYDIEFQDFFDRLNAGLPPAGPTSWDGYLAAVTADACVKSQETGNTEIVELPSKPDFYK” as the sequence, how does the protein production read?
The protein production was “not failed”.

For “MTLLRVGGVPEPFNEIFMQAQEGALPSTKLQVEFLGVAGGSGAALEMLAKCELDVAVTLTESAVARTKAAASGLAVHSVYVASPLAWGVAVSSKKTDWTDLNSLDAAVLRGESIRAGFSRRGSGSHLLLSVFASDRGWISTGIQNDILKSFECGSFDGLIQAAVAGDIDMFLWETCFTKECAATRQGLIRLVGEYAPSWPAFVLVCRDDAHVRAAVSELKREIEPLQRKFCTGEGLDILQNKYGFSLESAKLWLSRLQFAEPDEALSAEQWRSVERALELTAGSRSSSR”, which protein production is on record?
Its protein production is “not failed”.

For “MTLNAKGESNQILVDKEVHSTNLLLDIDEKPELFQGLLLSFQHVFAMFGATILVPLILGMPVSVALFASGCGTLIYQVATKFKVPVYLGSSFAYITAMALAMKQMHGDISAAQTGILFVGLIYVVVATVIKFVGNSWVDKILPPIIIGPMIIVIGLGLANSAVTNAGFVAKGDWRKMLVAVVTFLIAAFINTKGKGFIKIIPFLFAIIGGYILSIILGLVDLSPVEKAAWFELPKFYLPFKTGLFHSYKLYFGPEMLAILPISIVTIAENIGDHTVLGQICGRNFLKKPGLNRLLIGDGLATAFSALIGGPAETTYGENTGVIGMTRIASVTVIRNAAFIAIAFSFFGKFTALISTIPSAVLGGMAILLYGVIASNGLKVLIENRVNFAEVRNLIIASSMLVLGLGGAVLDLGALTLSGTALSAIVGIILNLILPKESMKS”, which protein production is on record?
The protein production was “not failed”.

Which protein production does the source give for “MTLNIYTEEWAPISFSVDGKPDGLAVQVVQEIQKRIDNQDPIKVVPWARGWKIITEQPNTVLFTMTRTAERERMFSLIGPVAVGTTNFYALKNSNLKINLEHHHHHH” here?
Its protein production is “not failed”.

Which protein production does the source give for “MTLRTRITLLTAGLLLVAFLVLGFALEGLLRNFLYGSLRTDLKEAANQVVRLLNLGGQALLEAGLPPSLYAEVQLLPEEDPALLAREGGISLQKSPALGSQRLLLQEEAYRELLKRGEVWAYAELPREGHPLRLLVYARKVEVNLSGSVWKGALLVGRPTEDLEATLSQFARIYAGTALFVLLLSLFLARGLVARALEPLEWAARKAEAMSARPEPLPEPETRDEVAALVKALNGMLTRLQEAFEAQTRFLQDASHELRTPITAILGHVGYLLRRTPLTEAQRESLEVVKREAERMGKLVSDLLDLSQSGTWRIRPVPVRVLDLLEEVREEFAKSFDGAILVEAPEDLYVLGDPDRLHQVMANLVSNALKAGARHVWLRAFDLGDKAVVRVEDDGEGIPEEHLPHLFERFYRVDKARDRERGGSGLGLAIVKAILEAHGGEVWVESQVGKGTAFSFSLPASGPPPPPR” here?
Its protein production is “failed”.

Which protein production does the source give for “MTLTALNAISPIDGRYVNKTRALSPYFSEFALTYYRLMVEIKWFESLAANDTIPEVPALDNKARKFLSDLISNFNESEAEKIKEFEKQTNHDVKAVEYYLQDKFQENEQLKSCVAFIHFACTSEDINNLAYALMIKQAIAQVIQPTIAEIMGSITLLGKQHADVAMLSRTHGQPATPTTMGKELVNFVARLKRPQQQLAEVLIPAKFNGAVGNYNAHVAAYPEVDWRKHCANFVTSLGLSFNAYTTQIEPHDGIAEVSQIMVRINNILLDYTQDIWSYISLGYFKQKTIAEEVGSSTMPHKVNPIDFENAEGNLGLSNALFIHFANKLTQSRMQRDLSDSTVLRNLGVAFSYSLIAYHSVAKGNDKLQINKSALQKDLSENWEVLAEAIQTVMRRYNEPNAYEQLKELTRGQMIDAENLKKFIKTLSIPEEAKAELMKLTPETYTGLATQLVKAFS” here?
Its protein production is “not failed”.

With “MTLTQQKVKFFSKAYHDVKRLYLSAFPPRERFPYFCLLLNSLRSLVTCYAYYDKERFVGFAYIIESKEQVFILFLAVNGSVRSKGYGSMILAQIREYAGRKPLILTIEPVEKDSPNSEQRRQRLSFYERNGYQLTSHYYYEGQERYQILTTEQSIDLERFQKLVKRAVLGLVLITV” as the sequence, how does the protein production read?
The protein production was “failed”.

Which protein production does the source give for “MTLWSVASVLTLAFIFWLNAVMTASPYIVYLSGLKKQSERKNRLVALLLLLASLLYFFLKVGSFAAEGFAGMIDTTYMQFIWTGPVGLFIQLQIAVAIAWIVYSVVKLKRIKWVLYVVAIGLMGWSFLSIGHGSDAVWWGKLALLTHLLVAWVWFGSLNSLRKLATSVPLAKAKAIMERFGVHMSAAVPILLIAGLVMYRSATGRWMPELPLTSYDTVLLAKLVFVALILLVAALHKLKFVPQLNDNAAAKRLKNSITAEMVLAVTIFILASALSSAFSPG” here?
Its protein production is “failed”.

Which protein production does the source give for “MTLYKQLVAGMIAVFILLLISVFTIEFNTTRNSLEQQQRSEVNNTINTVGLALAPYLEKKDTIAVESVINALFDGSSYSIVRLIFLDDGTEILRSYPIQPNNVPAWFTQLNLFEPIHDRRVVTSGWMQLAEVEIVSHPGAAYAQLWKALIRLSIAFLAILVIGMFAVAFILKRSLRPLQLIVNKMEQVANNQFGEPLPRPNTRDLIYVVDGINKMSEQVEKAFKAQAKEAQQLRERAYLDPVSHLGNRAYYMSQLSGWLSESGIGGVAILQAEFIKELYEEKGYEAGDGMVRELADRLKNSITIKDISIARISTYEFGIIMPNMDETELKIVAESIITCVDDINPDPTGMAKANLSLGVVSNKRQSSTTTLLSLLDNALLKRNPILS” here?
The protein production was “failed”.

Which protein production does the source give for “MTMSPSQDQTENTDMLTEIAILYYQEGATQEEISKKFGLSRAKVGRMLRKAREEGIVEITVKFHPVYSVQLEQKLVEKFNLKRALISLDQPNTNEQRKQVAALVSSYLNNNLQEGMAVAVGQGQNVAAVADHAGIVTQRNARFVSAIGGTHRSGDIINADHICRRLAKKYGGSSETLYAPAYVNDPSLRSAFMEHATIKETLSQARKAEFALVGIGDMDENSHMVKLGFFTPKEFVEARLNDGIVGDIGGFDFFKLDGTDADTLMRGRVIGLEMEDLRQIPNVVAMASESRKALSIMGALRTGVIDVLATSVSCAMALLNLAENEE” here?
The protein production was “not failed”.

Which protein production does the source give for “MTNERVMQLIREAYEKNLTTLDLSENQLTQLPSEITELKNLTTLNLSGNQLTQLPSEIGELKSLTSFDLSVNQLTQLPPEIGELKNLTILNVYRNQLIQLLPEITELKNLTTLDLSLNKLTQLPPLEHHHHHH” here?
The protein production was “failed”.

Which protein production does the source give for “MTNLGDLEIFARVVSTGSMSAAGRALGFSAAVISKRIKRLEDRLGARLLQRTTRQISLTEAGQGFYDRVLGILAGLEEAEAYASGRSSQVQGTLRISAPTSFGRMHIAPHLTGFMKDHPDLKLHIVLTDDFTDIVAEGFDLAIRIGELSDSSLVARKLAPVRRLLCAAPSYVARHGAPTEIGELAKHICLPAHNNDNWKLEGPDGSLSYRPEGPLVTNSSEIIREAVIAGAGIALRSTWDIGRELREGRLVQVLPQWEGSHKLTLSAVYPSRQFLPAKVRQFIDYLAALYGPVPYWEQ” here?
Its protein production is “failed”.

With “MTNLISGSSYPTANLYFMQVWKIECWLRAHEFSVDETICQMVEIMTLKFEKYWEEYSDILAIAAVFDPRLKLKCLEYCFSTLDRLTSKSRLAHVRSKIYKLFKAYKKRPSSITSSSQVETLEEDIPAGYSGFYAFVSQKVGSSGKSELDIYLGEPTLDMAAFRHFNVLAYWKDNSCRFKELSSMACDVLSIPITTVASESSFSIGSGVLSKYRSSLLPENIQALICTRNWLRGFPKEGEEEEVEEEKEEEKEEEKEEA” as the sequence, how does the protein production read?
Its protein production is “failed”.

For “MTNNPLGRIIPQQPPIEPQSDAHVLKSRLEWGEPAFTILDVRDRSTYNDGHIMGAMAMPIEDLVDRASSSLEKSRDIYVYGAGDEQTSQAVNLLRSAGFEHVSELKGGLAAWKAIGGPTEGIIESRTPAGADDYNVVSRMQNHLENQKKEV”, which protein production is on record?
Its protein production is “failed”.

Which protein production does the source give for “MTNTPRQGATLAVLIDADNAAPAIVEGLLAEVAKYGVAAVKRIYGDWTRPNLSGWKDRLLAHSIQPIQQFRYTVGKNATDSAMIIDAMDLLYTGRFDGFCIVSSDSDFTRLASRIREQGLTVYGFGERKTPKPFVTACDKFIYSDVLRADADSDSDSETGSAPARKRTTQELRQDSRLVRLLQSASQAVSDEDGWSTLGGIGNYIAKQAPEFDSRNYGYGKLSELVTATNLFEVETRNGGNNKTLWVRLKKRNKGEGGGQPQPAQPQQQQQPQQQGQSSQPSQSQQPSQQAQPQQQRPAPAPARPVQPAPEPVAVIPATEPARVTEEEDDDAAGSASTLIQEAVEVSTERPKAGGKRGKRPDVTLSDTPWPIDQSVFSAPGATVLSAQVDVPEETKAAAPAEEAKKPAKKKPAAKKAAPRKRAPAKKAAAAE” here?
The protein production was “failed”.

Which protein production does the source give for “MTNVRVIKPALAALVAAAACVGGLAFSSAQPAQADTYSDLINAQNQHAASVQREAELKQQLAGASQDLANKVLELDDLTNNKIVAAQAKVTQANEDAATAQDEADAASGRLSAAQKDKETLEEQIKQTGKDYDDAHAAVAQLARDEMHGSNASDVMSVVTGATSTQDFVNSMQSRDALSRNEANAASSAATSLSTSKNRGERLAAIEKQIAVLKTQSDEKAASAQTAAETAQSERDALDKLRQEGETRRNELSSMVDSLDSQSAKQAAQTVLIASQVDSYNRQFQKEQQDAANRVDTGNQGGTPSTPVTPAPAPAPAPAPAPAPAPAPAPSVGGQGTSNGDYGNAYAAGQCTYWAYERRRQMGIGTPSYLGNGGFWWRSAPAYGLRVDHTPQVGAALSFLPGQDGADGTYGHVAVVEAVYGDGTFQISEMNWGGPWNMHYRTLTNLGQYWFVH” here?
Its protein production is “failed”.
